Laboratory results taken from patent US20230105457A1, “Immunogenic Compounds For Treatment Of Adrenal Cancer” (ENTEROME S.A., priority 2019, published 2023).
Like-named read-outs stand apart in the source and are kept apart here.

Assays:
HLA-A*0201 = HLA-A*0201 (Homo sapiens, UniProt P04439, D140Y/D185E/D98H/E176V/E277Q/G131W/G231S/I119V/I121R/I166T/I218V/L300P/L318F/N151K/N90K/P208A/P217A/Q86G/Q94H/R138H/R169H/T345S)
Procedure: T2 cells (2·10^5 cells per well) are incubated with decreasing concentrations of peptides from 100 μM to 0.1 μM in a AIMV medium supplemented with 100 ng/μl of human P2m at 37° C. for 16 hours.
The analysis is achieved by FACS (Guava Easy Cyte).
The relative affinity is then determined as follows:
Each peptide is solubilized by taking into account the amino acid composition. […] Other peptides are resuspended in water or PBS pH7.4.
T2 cells (2·10^5 cells per well) were incubated with decreasing concentrations of peptides from 100 μM to 0.1 μM in a AIMV medium supplemented with 100 ng/μl of human P2m at 37° C. for 16 hours.
The analysis was achieved by FACS (Guava Easy Cyte).

[1] = tested on: splenocytes of HLA-A2 (CB6F1-Tg(HLA-A*0201/H2-K^b)A*0201) mice; experiment: ELISPOT-IFNγ assay on splenocytes of vaccinated HLA-A2 humanized mice (Example 9); assay type: in vivo, mouse; conditions: 100 μg s.c. d0 and d14 with T13L helper and IFA; compared to the respective human reference epitopes
Text: Briefly, HLA-A2 humanized mice (HLA-A2 (CB6F1-Tg(HLA-A*0201/H2-K^b)A*0201) were assigned randomly (based on mouse sex and age) to experimental groups, wherein each group was immunized with a specific vaccination peptide (vacc-pAg) combined to a common helper peptide (h-pAg T13L; sequence: […]; SEQ ID NO: 280; Bhasin M, Singh H, Raghava G P (2003) MHCBN: a comprehensive database of MHC binding and non-binding peptides. Bioinformatics 19: 665-666) (as outlined in Table 15 below). The vacc-pAg were compared in couples (group 1 vs. group 2, group 1 vs. group 3; group 1 vs. group 4; group 5 vs. group 6; group 7 vs. group 8). Thereby, both native and optimized versions of a single peptide were compared in each wave.
The animals were immunized on day 0 (d0) with a prime injection, and on d14 with a boost injection. Each mouse was injected s.c. at tail base with 100 μL of an oil-based emulsion that contained: • 100 μg of vacc-pAg (25 μL of 4 mg/mL stock per mouse); • 150 μg of h-pAg (15 μL of 10 mg/mL stock per mouse); • 10 μL of PBS to reach a total volume of 50 μL (per mouse); • Incomplete Freund's Adjuvant (IFA) added at 1:1 (v:v) ratio (50 μL per mouse).
A separate emulsion was prepared for each vacc-pAg, as follows: IFA reagent was added to the vacc-pAg/h-pAg/PBS mixture in a 15 mL tube and mixed on vortex for repeated cycles of 1 min until forming a thick emulsion.
Seven days after the boost injection (i.e. on d21), the animals were euthanized and the spleen was harvested. Splenocytes were prepared by mechanical disruption of the organ followed by 70 μm-filtering and Ficoll density gradient purification.
The splenocytes were immediately used in an ELISPOT-IFNγ assay (Table 16). Experimental conditions were repeated in triplicates, using 2*105 total splenocytes per well, and were cultured in presence of vacc-pAg (10 μM), lonomycin (0.1 μM) plus PMA (1 μM) or medium-only to assess for their capacity to secrete IFNγ. The commercial ELISPOT-IFNγ kit (Diaclone Kit Mujrine IFNγ ELISpot) was used following the manufacturer's instructions, and the assay was performed after about 19 h of incubation.
Spots were counted on a CTL ELISpot reader. Data plotting and statistical analysis were performed with the Prism-5 software (GraphPad Software Inc.).
The data were then normalized as a number of specific spots (the average counts obtained in the ‘medium only’ condition being subtracted) per 50*103 total T cells.
The individual average values (obtained from the triplicates) were next used to plot the group average values. As the functional capacity of T cells might vary from individual to individual, the data were also expressed as the percentage of the ionomycin plus PMA response per individual (see FIG. 11).

[2] = target: T1, HLA-A*0201 molecule expressed on human tumor cell line T2 (human); experiment: T2 cell HLA-A2 stabilisation, FACS; peptide at 25 µM
T1 construct: surface HLA-A2 read with anti-HLA-A2 antibody BB7.2-PE by FACS; also called HLA-A2

[3] = target: T1, HLA-A*0201 molecule expressed on human …; experiment: T2 cell HLA-A2 stabilisation, FACS; peptide at 50 µM
[4] = target: T1, HLA-A*0201 molecule expressed on human …; experiment: T2 cell HLA-A2 stabilisation, FACS; peptide at 100 µM
[5] = target: T1, HLA-A*0201 molecule expressed on human …; experiment: T2 cell HLA-A2 stabilisation, FACS; peptide at 6.25 µM
[6] = target: T1, HLA-A*0201 molecule expressed on human …; experiment: T2 cell HLA-A2 stabilisation, FACS; peptide at 3.125 µM
[7] = target: T1, HLA-A*0201 molecule expressed on human …; experiment: T2 cell HLA-A2 stabilisation, FACS; 20% of signal of HIV pol 589-597 at 100 µM
[8] = target: T1, HLA-A*0201 molecule expressed on human …; experiment: T2 cell HLA-A2 stabilisation, FACS; ratio of 20% concentration to that of HIV pol 589-597 (lower = stronger)
[9] = target: T1, HLA-A*0201 molecule expressed on human …; experiment: T2 cell HLA-A2 stabilisation, FACS; 20% of signal of HIV pol 589-597 at 100 µM; remark: listed apart in the source
[10] = target: T1, HLA-A*0201 molecule expressed on human …; experiment: T2 cell HLA-A2 stabilisation, FACS; ratio of 20% concentration to that of HIV pol 589-597 (lower = stronger); remark: listed apart in the source
[11] = target: T1, HLA-A*0201 molecule expressed on human …; experiment: T2 cell HLA-A2 stabilisation, FACS; peptide at 1.5625 µM
[12] = T2 cell line, HLA-A*0201, Example 13, protocol as in Example 3
[13] = HLA-A*0201, HIV peptide printed as 1

ALPFGFILV [1A9V, reference compound]
Concentration of peptide that induces 20% of HLA-A2 expression (HLA-A*0201; [12]): 20.9 µM | Concentration of peptide that induces 20% of HLA-A2 expression (HLA-A*0201; Table 12, Example 7): 36.5 µM

YTLGEFLYI [BIRC5-B2]
Concentration of peptide that induces 20% of HLA-A2 expression (HLA-A*0201; Table 14, Example 8): 14.7 µM | T cell responses in the ELISPOT-IFNγ assay (in words) [1]: induced improved T cell responses

FMPFGFILPI [IL13RA2-B6]
Concentration of peptide that induces 20% of HLA-A2 expression (HLA-A*0201; [12]): 5.9 µM

RVSSYLVPI (listed as Homo sapiens) [FOXM1-H, reference compound]
Concentration of peptide that induces 20% of HLA-A2 expression (HLA-A*0201; Table 14, Example 8): 37.6 µM

YLPFGFILV [IL13RA2-B5]
Concentration of peptide that induces 20% of HLA-A2 expression (HLA-A*0201; [12]): 1.5 µM

YMPFGFILV [IL13RA2-B4]
Concentration of peptide that induces 20% of HLA-A2 expression (HLA-A*0201; [12]): 4.5 µM

YLYTFLIST [IL13RA2-B2]
In vitro binding affinity (HLA-A*0201; [13]): 5.97 | Concentration of peptide that induces 20% of HLA-A2 expression (HLA-A*0201; [12]): 4.5 µM

LMLGEFLKL [2M, reference compound]
Concentration of peptide that induces 20% of HLA-A2 expression (HLA-A*0201; Table 17, Example 12): 2.87 µM

GLLGEFLQI [BIRC5-B3]
Concentration of peptide that induces 20% of HLA-A2 expression (HLA-A*0201; Table 14, Example 8): 22.9 µM | T cell responses in the ELISPOT-IFNγ assay (in words) [1]: induced improved T cell responses

FMPFGFILGV [IL13RA2-B3]
Concentration of peptide that induces 20% of HLA-A2 expression (HLA-A*0201; [12]): 3.3 µM

RLSSYLVEI [FOXM1-B]
Concentration of peptide that induces 20% of HLA-A2 expression (HLA-A*0201; Table 14, Example 8): 46.7 µM

HIV: Reference peptide HIV pol 589-597, positive control (ISPIETVPV; UniProt P04585 589-597, looked up, fragment) [reference compound]
In vitro binding affinity (HLA-A*0201; [13]): 1 | Concentration of peptide that induces 20% of HLA-A2 expression (HLA-A*0201; Table 17, Example 12): 0.85 µM | In vitro binding affinity (HLA-A*0201; Table 17, Example 12, relative affinity vs HIV): 1.00 | Relative HLA-A2 labelling on T2 cells (HIV at 100 μM = 100) (HLA-A*0201; Table 18, peptide concentration 0.1 μM): 2.405 | Relative HLA-A2 labelling on T2 cells (HIV at 100 μM = 100) (HLA-A*0201; Table 18, peptide concentration 1 μM): 22.14 | Relative HLA-A2 labelling on T2 cells (HIV at 100 μM = 100) (HLA-A*0201; Table 18, peptide concentration 10 μM): 84.725 | Relative HLA-A2 labelling on T2 cells (HIV at 100 μM = 100) (HLA-A*0201; Table 18, peptide concentration 100 μM): 100

YTLGEFLYI [BIRC5-B2]
mean relative fluorescence intensity [2]: 29.6 relative (HIV peptide = 100) | mean relative fluorescence intensity [3]: 54.4 relative (HIV peptide = 100) | mean relative fluorescence intensity [4]: 58 relative (HIV peptide = 100) | mean relative fluorescence intensity [5]: 9 relative (HIV peptide = 100) | mean relative fluorescence intensity [6]: 6.6 relative (HIV peptide = 100) | Concentration of peptide that induces 20% of HLA-A2 expression [7]: 14.7 µM | In vitro binding affinity (relative affinity) [8]: 4.5

FMPFGFILGV [IL13RA2-B3]
Concentration of peptide that induces 20% of HLA-A2 expression [9]: 3.3 µM | In vitro binding affinity (relative affinity) [10]: 4.39

FMPFGFILV [IL13RA2-B2 (SEQ ID NO: 64, Example 13)]
Concentration of peptide that induces 20% of HLA-A2 expression [9]: 4.5 µM | In vitro binding affinity (relative affinity) [10]: 5.97

YLPFGFILV [IL13RA2-B5]
Concentration of peptide that induces 20% of HLA-A2 expression [9]: 1.5 µM | In vitro binding affinity (relative affinity) [10]: 1.76

YMPFGFILV [IL13RA2-B4]
Concentration of peptide that induces 20% of HLA-A2 expression [9]: 4.5 µM | In vitro binding affinity (relative affinity) [10]: 5.24

LMDLSTTEV [FOXM1-B2]
mean relative fluorescence intensity [2]: 98.2 relative (HIV peptide = 100) | mean relative fluorescence intensity [3]: 91.5 relative (HIV peptide = 100) | mean relative fluorescence intensity [4]: 105 relative (HIV peptide = 100) | mean relative fluorescence intensity [5]: 33.5 relative (HIV peptide = 100) | mean relative fluorescence intensity [6]: 12.7 relative (HIV peptide = 100) | mean relative fluorescence intensity [11]: 7.2 relative (HIV peptide = 100) | Concentration of peptide that induces 20% of HLA-A2 expression [7]: 6.7 µM | In vitro binding affinity (relative affinity) [8]: 1.3

RLSSYLVEI [FOXM1-B]
mean relative fluorescence intensity [2]: 7.6 relative (HIV peptide = 100) | mean relative fluorescence intensity [3]: 21.3 relative (HIV peptide = 100) | mean relative fluorescence intensity [4]: 47.5 relative (HIV peptide = 100) | mean relative fluorescence intensity [5]: 0 relative (HIV peptide = 100) | mean relative fluorescence intensity [6]: 0 relative (HIV peptide = 100) | mean relative fluorescence intensity [11]: 0 relative (HIV peptide = 100) | Concentration of peptide that induces 20% of HLA-A2 expression [7]: 46.7 µM | In vitro binding affinity (relative affinity) [8]: 4.6

GLLGEFLQI [BIRC5-B3]
mean relative fluorescence intensity [2]: 20.9 relative (HIV peptide = 100) | mean relative fluorescence intensity [3]: 29.8 relative (HIV peptide = 100) | mean relative fluorescence intensity [4]: 35 relative (HIV peptide = 100) | mean relative fluorescence intensity [6]: 8.9 relative (HIV peptide = 100) | mean relative fluorescence intensity [11]: 9.4 relative (HIV peptide = 100) | Concentration of peptide that induces 20% of HLA-A2 expression [7]: 22.9 µM | In vitro binding affinity (relative affinity) [8]: 7

WLPFGFILI [IL13RA2-H]
mean relative fluorescence intensity [2]: 11.2 relative (HIV peptide = 100) | mean relative fluorescence intensity [3]: 14.2 relative (HIV peptide = 100) | mean relative fluorescence intensity [4]: 26.5 relative (HIV peptide = 100) | mean relative fluorescence intensity [5]: 9.6 relative (HIV peptide = 100) | mean relative fluorescence intensity [6]: 3.7 relative (HIV peptide = 100) | mean relative fluorescence intensity [11]: 3 relative (HIV peptide = 100) | Concentration of peptide that induces 20% of HLA-A2 expression [9]: 62.3 µM | In vitro binding affinity (relative affinity) [10]: 78.8

FMPFGFILPI [IL13RA2-B6]
Concentration of peptide that induces 20% of HLA-A2 expression [9]: 5.9 µM | In vitro binding affinity (relative affinity) [10]: 6.86

RVSSYLVPI [FOXM1-H]
mean relative fluorescence intensity [2]: 10.5 relative (HIV peptide = 100) | mean relative fluorescence intensity [3]: 30.7 relative (HIV peptide = 100) | mean relative fluorescence intensity [4]: 83.8 relative (HIV peptide = 100) | mean relative fluorescence intensity [5]: 0 relative (HIV peptide = 100) | mean relative fluorescence intensity [6]: 0 relative (HIV peptide = 100) | mean relative fluorescence intensity [11]: 0 relative (HIV peptide = 100) | Concentration of peptide that induces 20% of HLA-A2 expression [7]: 37.6 µM | In vitro binding affinity (relative affinity) [8]: 3.7

LMDLSTTPL [FOXM1-H2]
mean relative fluorescence intensity [2]: 65.4 relative (HIV peptide = 100) | mean relative fluorescence intensity [3]: 62.5 relative (HIV peptide = 100) | mean relative fluorescence intensity [4]: 77.6 relative (HIV peptide = 100) | mean relative fluorescence intensity [5]: 19.7 relative (HIV peptide = 100) | mean relative fluorescence intensity [6]: 0.9 relative (HIV peptide = 100) | mean relative fluorescence intensity [11]: 5.3 relative (HIV peptide = 100) | Concentration of peptide that induces 20% of HLA-A2 expression [7]: 12.6 µM | In vitro binding affinity (relative affinity) [8]: 2.5
